± gives the uncertainty stated by the source.
Assay: protein stability index of a GFP-peptide fusion (yeast GPS) (PSI 1-4); higher = more stable; sorted into four equal gates, so the index is relative within each strain
Procedure, shortened: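 Each library plasmid carries Cherry plus GFP with a tiled 17-residue yeast protein peptide fused downstream, and the pooled library was carried in yeast. Mid-log cultures in leucine-free medium were sorted into four equal gates by GFP/Cherry ratio. Reads from Illumina sequencing of PCR-amplified plasmids from each gate were assigned to strains by barcodes. Per peptide, the protein stability index was computed as the summed products of gate read frequency and gate number.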

Sequence	protein stability index (doa10∆)	protein stability index (pdr5∆)	protein stability index (san1∆)	protein stability index (ubr1∆)
KEDEPVVARRSNSANVS [ITC1]	3.07 ± 0.064	3.06 ± 0.068	2.57 ± 0.048	2.4 ± 0.05
KVVKTPGGILRAQHVKK [RPL34A]	2.76 ± 0.074	2.83 ± 0.077	2.9 ± 0.064	2.71 ± 0.063
PSSQSQNDTPMFKLGNF [YLR018C/POM34]	2.54 ± 0.044	2.8 ± 0.046	2.79 ± 0.036	2.6 ± 0.028
RLDSYKVIEQPITSETA [RPL25]	1.94 ± 0.055	2.31 ± 0.079	2.31 ± 0.079	2.5 ± 0.067
RVHDQPLIWQLLQSSII [POP3]	1.43 ± 0.062	1.78 ± 0.07	1.66 ± 0.11	1.7 ± 0.028
PPSVTLQDWQREDEFGS [YDL088C/ASM4]	3.1 ± 0.11	3.31 ± 0.074	2.99 ± 0.065	3.24 ± 0.054
INTLNGGSSDTADKIRI [GAL11]	2.34 ± 0.098	2.02 ± 0.088	1.27 ± 0.094	1.4 ± 0.066
LFRAIYLYCLDNNITEM [YCG1]	2.08 ± 0.052	2.09 ± 0.044	2.1 ± 0.061	2.38 ± 0.05
AQKYASIVGVDLSSAAS [FAS2]	2.13 ± 0.069	2.21 ± 0.082	1.66 ± 0.12	1.75 ± 0.062
FKHISVKDFTSLGFNEV [RPO21]	3.08 ± 0.21	2.38 ± 0.12	2 ± 0.14	2.25 ± 0.044
LYPIFLLDDKKLMDEDS [YJR042W/NUP85]	2.01 ± 0.09	1.84 ± 0.14	1.38 ± 0.29	1.66 ± 0.057
SLQQMQHLQQLKMQQQQ [GAL11]	2.05 ± 0.096	2.09 ± 0.06	2.36 ± 0.099	1.41 ± 0.08
RLTFKPWVVYLQILAML [YMR129W/POM152]	1.23 ± 0.07	1.22 ± 0.06	1.1 ± 0.11	1.05 ± 0.049
LEDFENFKGLAKEKERM [YIL149C/MLP2]	3.41 ± 0.075	3.51 ± 0.085	3.42 ± 0.054	3.35 ± 0.083
IFSFHQDSIFQRIIADL [SRB8]	2.49 ± 0.062	2.06 ± 0.072	2.24 ± 0.081	2.41 ± 0.035
VEISLVNGAKNLVVSGP [FAS1]	2.76 ± 0.15	2.6 ± 0.1	2.3 ± 0.1	2.51 ± 0.21
ANHDDQDDIDEMVENSS [SRP68]	3.1 ± 0.1	3.2 ± 0.11	3.14 ± 0.095	3.13 ± 0.07
STLMPGGVDVGPSVESY [SNF5]	1.63 ± 0.083	1.87 ± 0.083	2 ± 0.16	2.68 ± 0.087
AFIFGLQDELKELQLEK [SMC3]	3.23 ± 0.12	3.47 ± 0.11	3.11 ± 0.12	3.54 ± 0.19
GRNRGRPNRRGPRNTEE [RPS2]	3.38 ± 0.069	3.24 ± 0.16	3.58 ± 0.1	3.45 ± 0.083
ASLADVMSIESLVEVVF [FAS1]	2.89 ± 0.08	2.18 ± 0.067	1.78 ± 0.091	2.97 ± 0.062
NALYDTLLESNLCKIIE [RPN6]	2.07 ± 0.068	2.48 ± 0.079	2.01 ± 0.065	2.41 ± 0.082
RAFQKQPHIFNNPKVKT [RPS11A]	2.33 ± 0.052	2.48 ± 0.043	2.59 ± 0.044	2.21 ± 0.028
DASPDSLEALIDLCHDF [YCS4]	2.81 ± 0.055	2.9 ± 0.047	2.86 ± 0.054	2.86 ± 0.041
TIRTRKVISNPLLARKQ [RPS24A]	1.74 ± 0.1	1.88 ± 0.066	2.35 ± 0.13	1.87 ± 0.089
SNININVNNNNIGQQQV [SWI1]	2.64 ± 0.19	3.01 ± 0.2	3.07 ± 0.074	3.13 ± 0.21

Sequence	protein stability index (doa10∆)	protein stability index (pdr5∆)	protein stability index (san1∆)	protein stability index (ubr1∆)
INQINEAHPTKVKNFGV [RPL20A]	3.04 ± 0.074	2.93 ± 0.049	3.117 ± 0.031	2.85 ± 0.038
MATLEELDAQTLPGDDE [RPT5]	3.31 ± 0.12	3.28 ± 0.15	3.35 ± 0.13	3.49 ± 0.13
FVIGEQGKPYISLPKGK [RPS4A]	3.34 ± 0.068	3.21 ± 0.065	3.25 ± 0.051	2.41 ± 0.053
KPLADLRPLFTRYELYI [YLR335W/NUP2]	2.4 ± 0.048	2.04 ± 0.04	2.09 ± 0.073	2.02 ± 0.029
AIFPYQDPIFGSVLLTL [ECM29]	1.69 ± 0.045	1.84 ± 0.057	1.29 ± 0.12	1.45 ± 0.044
LVSSGDRFIELISDQLL [YML103C/NUP188]	2.76 ± 0.099	2.5 ± 0.079	2.42 ± 0.057	3 ± 0.06
KTTNTTPSFSFGAKSDE [YJL041W/NSP1]	3.27 ± 0.079	3.24 ± 0.082	3.09 ± 0.035	3.18 ± 0.048
LNIGLGAVGLKDLTLCR [YCS4]	2.3 ± 0.079	2.41 ± 0.1	2.15 ± 0.095	2.53 ± 0.056
YESIATYASVTGLFTLE [RPN7]	–	–	–	1.96 ± 0.29
QFEIPISDDDDSALRYS [POP4]	2.98 ± 0.071	2.75 ± 0.096	2.54 ± 0.049	3.16 ± 0.038
LTFILGQLLSVKFLVYQ [YML031W/NDC1]	1.53 ± 0.081	2.14 ± 0.12	1.51 ± 0.19	1.69 ± 0.097
IPAGIYWYWWKNGNEYN [QCR8]	2.35 ± 0.076	1.69 ± 0.053	1.77 ± 0.13	2.04 ± 0.089
YDSRTTIFSPEGRLYQV [PRE9]	3.02 ± 0.1	3.31 ± 0.075	2.97 ± 0.078	3.09 ± 0.063
NTSIAQFDIQSPLYMDT [YML103C/NUP188]	2.99 ± 0.08	2.89 ± 0.049	2.08 ± 0.081	3.01 ± 0.058
VSKEQFLKDADVECIKA [YJL039C/NUP192]	1.45 ± 0.043	1.61 ± 0.059	2.17 ± 0.079	1.89 ± 0.042
DSSYQDIFAVNLEESSK [RET1]	–	2.09 ± 0.25	2.29 ± 0.26	–
CEKWAASSWAKKIAQRE [RPL14A]	2.35 ± 0.089	3.16 ± 0.12	2.24 ± 0.17	2.06 ± 0.062
KSMLSKPETLSIGKNPF [SWI3]	2.69 ± 0.053	2.91 ± 0.054	2.6 ± 0.05	2.9 ± 0.037
TKGENYQLVKTLGEQLI [FAS2]	3.06 ± 0.11	3.24 ± 0.13	2.6 ± 0.13	3.27 ± 0.15
NLQAKPLVGKPKTELTK [YAR002W/NUP60]	2.72 ± 0.098	2.52 ± 0.067	2.7 ± 0.088	2.39 ± 0.1
QRILEVLGTPDQKIWPY [SSN3]	2.2 ± 0.076	1.45 ± 0.057	1.76 ± 0.093	1.6 ± 0.068
SGITDPYEMYKYVHVSE [FAS2]	2.33 ± 0.072	2.63 ± 0.074	2.48 ± 0.07	2.4 ± 0.069
PPPGLDELETKAEKKVE [PRP8]	3.02 ± 0.06	3.21 ± 0.048	3.13 ± 0.05	3.08 ± 0.049
SQRAQVVTMSVKSVNDP [RPC37]	2.17 ± 0.073	2.4 ± 0.11	1.89 ± 0.08	1.97 ± 0.1
HVKAGKGLIKVNGSPIT [RPS16A]	2.62 ± 0.065	2.78 ± 0.059	2.87 ± 0.061	3.1 ± 0.051
MSSDASTYRLEDVLSSF [SSN2]	2.21 ± 0.073	2.38 ± 0.069	1.9 ± 0.1	2.56 ± 0.091
